According to the supplement of paper PMC9170038:

Test system: MS2 coat protein
Experiment: apparent KD of MS2 coat protein; designed switch direction (-1 OFF switch, 1 ON switch): 1; higher = weaker reporter binding
Procedure, shortened: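 Apparent KD, taken as the median over clusters for each design, was obtained by curve-fitting normalised cluster fluorescence. Designed RNA switches had been transcribed on Illumina chips by stalled E. coli RNA polymerase and titrated with SNAP-549-labelled MS2 coat protein, doubling from 0.7 or 1.5 nM to 3 µM.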

[1] = input ligand: microRNA oligo, concentration not stated
[2] = Eterna round: R95, input ligand: FMN 200 uM
[3] = Eterna round: R95, input ligand: microRNA oligo, concentration not stated
[4] = Eterna round: R95, input ligand: none

Row | Sequence | apparent KD of MS2 coat protein (input ligand: FMN 200 uM) [nM] | apparent KD of MS2 coat protein [1] [nM] | apparent KD of MS2 coat protein (input ligand: none) [nM] | apparent KD of MS2 coat protein [2] [nM] | apparent KD of MS2 coat protein [3] [nM] | apparent KD of MS2 coat protein [4] [nM]
1 | GGAGACAGAGCAGGAUAUGCUCCGAGUAACGAAGCAGAAGGGUUCGUAAAUCGUCGACAUGAGGAUCACCCAUGUGACCUAGUA [Eternabot solution 18] (Eterna round: R96, puzzle: Same State NG 1) | 20.7 | 18.4 | 24.7 | – | – | –
2 | GCCAACUUAUGAGGAUAUGGCACCUUAUUGGUGCCAGAAGGCAUGUGAAUUCACAUGAGGAUCACCCAUGUAUUAUAGUUGGCA [Fiskers NG1ss - 20] (Eterna round: R96, puzzle: Same State NG 1) | 32.2 | 221 | 356 | – | – | –
3 | UACCAACAAAUAAAACAAGCGUGCUCGUCACAUGAGGAUCACCCAUGUUUAAACGCUGUACCUACAUCCUCAGCGCC [Usatqulale] (puzzle: Sensor for hsa-mir-208a) | – | – | – | 38.9 | 31.3 | 52
4 | GGUAUCUCCAGUGAGGAUAUGCGGCGUAGAACAUGAGGAUCACCCAUGUCCUUCGAAUGGGUUACGCAGAAGGCACUACGGUACC [Robot Arm] (puzzle: Same State 2) | – | – | – | – | 30.1 | –
5 | GCUCGCACGAUGACCCACAUGAGGAUCACCCAUGUGCAUGGGCAGGAUAUCUAGAUUAAGGAUGUAGAGAAGGGUUGAGCGAGC [SameState NG3 #26] (Eterna round: R96, puzzle: Same State NG 3) | 1580 | 192 | 533 | – | – | –
6 | GGCGCCGGCGCAGGAUAUAAUAGCACCAACAAAUUAGAAGGGUGUCUGACUUAAACAUGAGGAUCACCCAUGUGCGCCACAAAA [Eternabot solution 2] (Eterna round: R96, puzzle: Same State NG 1) | 198 | 137 | 311 | – | – | –
7 | GUAGCAUGCAGCGAGGAUAUUCAUAUUAAAACAUGAGGAUCACCCAUGUAGGCCAAAAGGCCUUGGGAGAAGGCGCACAUGCUAC [Xeonanis - 20] (Eterna round: R96, puzzle: Same State 2) | 37.8 | 360 | 536 | – | – | –
8 | AAAAGACAUGAGGAUCACCCAUGUGAAAACAUACAAGGAUAUGUGUGGAAACCGUACUAUACAGAAGGUGUAUGUC [SS1 - 85] (Eterna round: R96, puzzle: Same State 1) | – | 25.1 | – | – | – | –
9 | GCGAGCGUACUUGCAACAUGAGGAUCACCCAUGUUAACUGGACAGGAUAUGGUACCGUUUCGGUACCAGAAGGGUUCCUCAUUG [JL SSNG3 3.63] (Eterna round: R96, puzzle: Same State NG 3) | 319 | 34.7 | 437 | – | – | –
10 | CAGCACUAUCGAGAGGAUAUGCGGUGAUGGACAUGAGGAUCACCCAUGUUAGCGGUAGCAUCACGGCAGAAGGCUCUGCUGCUGC [Soteed Omei mod 39] (puzzle: Same State 2) | – | – | – | 20.4 | 28.8 | 37.4
11 | UGGAUCUAGGCUUGCCUGGGUCCAUGCUGACAUGAGGAUCACCCAUGUGCAUCCUACAAGCUUUUUGCUUGUCUGUC (Eterna round: R96, puzzle: Sensor for hsa-mir-208a) | 384 | 607 | 530 | – | – | –
12 | UUAAUGAUGUAAGGAUAUACAUGAGGAAUUCUCGUAGAAGGUACAUGACAUGAGGAUCACCCAUGUAUCGCUCCGUAGAGCGUA [JL SSNG1 1.12] (Eterna round: R96, puzzle: Same State NG 1) | 190 | 119 | 79.7 | – | – | –
13 | UUAAUUUGUUGAGGAUAUUAUGUCAAAAGAGAAGACAUGAGGAUCACCCAUGUGAGAAAAGGUUUUAAGAAGGCAACAUUCAUA [JR_SSNG2_Sub089] (Eterna round: R96, puzzle: Same State NG 2) | 39.5 | 77.7 | 115 | – | – | –
14 | CAGUACAUUCAAGGAUAUUCUCCAUGGAAAGUAGAAGAAGGUGAAACAUGAGGAUCACCCAUGUAGAAAGGAACAUUCGUACUG [Eternabot solution 34] (Eterna round: R96, puzzle: Same State NG 1) | 181 | 147 | 310 | – | – | –
15 | AUUAAACAUGAGGAUCACCCAUGUCUACAAAGUCGAGGAUAUGGGCAAAUAAAAUAAGAACCAGAAGGCGAAUAAU [salish99_ss1_r3_072] (puzzle: Same State 1) | – | – | – | 60.3 | 613 | 533
16 | GGUGGGUUACUACCAACACAUGAGGAUCACCCAUGUUUUGGGAAGGAUAUGGUACCUAUUUGGUACCAGAAGGUCCAGUUAGUG [salish99_SSNG3_r04_703] (Eterna round: R96, puzzle: Same State NG 3) | 61.9 | 37.7 | 40 | – | – | –

Row | Sequence | apparent KD of MS2 coat protein (input ligand: FMN 200 uM) [nM] | apparent KD of MS2 coat protein [1] [nM] | apparent KD of MS2 coat protein (input ligand: none) [nM] | apparent KD of MS2 coat protein [2] [nM] | apparent KD of MS2 coat protein [3] [nM] | apparent KD of MS2 coat protein [4] [nM]
17 | GUGGUCAGACAUGAGGAUCACCCAUGUGGAAUAAAUAAGGGUUAGGAUAUGGAAUAUAGGAUAUACCAGAAGGGAUGGUUGGUG (Eterna round: R96, puzzle: Same State NG 3) | 123 | 108 | 111 | – | – | –
18 | GGAGCCGGCACCGAGGAUAUUCAUAUUAAAACAUGAGGAUCACCCAUGUAGGCCAGAAGGCCUUGGGAGAAGGCGGACCGGCUCG [Xeonanis - 4] (Eterna round: R96, puzzle: Same State 2) | 27.4 | 165 | 287 | – | – | –
19 | AUAAAACAUGAGGAUCACCCAUGUCAACAAAAUCGAGGAUAUGGACAGACUUCGGUCUGUCCAGAAGGCGAAUAAU [salish99_ss1_r3_100] (puzzle: Same State 1) | – | – | – | – | 13.8 | –
20 | CGUAGGUAGCUGGAGGAUAUUCGAGUGGUAACAUGAGGAUCACCCAUGUGGAGUUAGGUACAUGAGGAGAAGGCUAGCUGCCUGC [JL-ss2-3.18 JL mod] (puzzle: Same State 2) | – | – | – | 10.4 | 23 | 27.4
21 | UAUUUAAUCAUAGGAUAUAGUGUGAAAUUUGGACUAGAAGGAUGUAACAUGAGGAUCACCCAUGUGGUAAGUGGGACACAGUGA [JR_SSNG1_Sub096] (Eterna round: R96, puzzle: Same State NG 1) | – | 114 | – | – | – | –
22 | GGUCGGACUCACAUGAGGAUCACCCAUGUUGCGGAAACGCGGCAGGAUAUCUGUCCGAAAAGGUCAGAGAAGGGCUAACCGACC [Fiskers NG3ss - 56] (Eterna round: R96, puzzle: Same State NG 3) | 52.2 | 254 | 343 | – | – | –
23 | GCUAGAAUUAAAGCCAACAUGAGGAUCACCCAUGUAUGUUGGUAGGAUAUCGUUUGCAAAGCAAACGAGAAGGGCCAAACUAGC [Mat - Same State NG 3 - JL Mod - D19] (Eterna round: R96, puzzle: Same State NG 3) | 86.6 | 104 | 99.7 | – | – | –
24 | UCAAGCGAGAGGCUCGUCUUAUGCAAGGAACAUGAGGAUCACCCAUGUGAGGGACGAUUGAGUUAGAUGGAAUGGAG [JR_SHM208A_Sub032] (puzzle: Sensor for hsa-mir-208a) | – | – | – | 29.9 | 136 | 33.5
25 | GUUACAUGAGGAUCACCCAUGUAUGUGUGGGAGUAAGUGUCUUAGGAUAUCUAUGAUUUAAUUUUAGAGAAGGAAGAUUGUUGU [JMF's solution 86] (Eterna round: R96, puzzle: Same State NG 3) | 112 | 70.9 | 90.8 | – | – | –
26 | UUGGUGUAGAUACAGGAUAUGUUGCUCGUAACAUGAGGAUCACCCAUGUAUCUAUGAGAUUAAAUGCAGAAGGGUGCACAUCACU [salish99_ss2_r3_088] (puzzle: Same State 2) | – | – | – | 121 | 54.2 | 329
27 | UUGAAGAAUUAAGGAUAUUGAGUACAUAUGUAAAACAUGAGGAUCACCCAUGUGGGUUGCGGUAUCGAGAAGGUAAAUUACUAG [Mat - same State NG 2 - JL mod - D69] (Eterna round: R96, puzzle: Same State NG 2) | 69.9 | 66.2 | 65.9 | – | – | –
28 | AGGGUCGUGCUAGGAUAUCUAGGAUAUGGACGAGGAUUACCCGAGCAGCAUUAGCGCACCAGAGGAGAGAAGGAGCGUGAUGCG [pwkr ssNG2 2F5 2FMN.10] (Eterna round: R96, puzzle: Same State NG 2) | 329 | 2.76 | 63.7 | – | – | –
29 | AGAGUGUAUCCACAGGAUAUGCGAGCUGACACAUGAGGAUCACCCAUGUAGUCCUAAAGGGCUGAGCAGAAGGGUGGUAAAGCUC [Raesvelave] (puzzle: Same State 2) | – | – | – | 12.9 | 44.2 | 53.6
30 | GGAAUAUUUACAGGAUAUCAUUUGUAAAUUCGAUGAGAAGGGUAGAUGUCUUACACGACGUGUUACAUGAGGAUCACCCAUGUU [SameState NG1 #7] (Eterna round: R96, puzzle: Same State NG 1) | 146 | 142 | 146 | – | – | –
31 | AUAAAUAACACAGGAUAUCCGCACGAGUAGUACGGAGAAGGGUGAACGUCGGCUCUCGCCAACAUGAGGAUCACCCAUGUAAAA [Usesesana] (Eterna round: R96, puzzle: Same State NG 1) | 1160 | 432 | 734 | – | – | –
